Here are results for one substance from patent US20220348620A1.

Some targets named below: DDB1 (human) (UniProt Q16531); OPA1 (human) (UniProt O60313); DDOST (human) (UniProt P39656); RPN1 (human) (UniProt P04843); RPN2 (human) (UniProt P04844); HSPA8 (human) (UniProt P11142); TFRC (human) (UniProt P02786); SLC25A13 (human) (UniProt Q9UJS0); COPB1 (human) (UniProt P53618); COPA (human) (UniProt P53621).
Common to all, as to assay: anti-Flag pull-down from MFF1-transfected PC3 cells, LC-MS/MS; intensity over control, mean of two experiments

DDOST (human), sequence (P39656 43-456 limits assumed): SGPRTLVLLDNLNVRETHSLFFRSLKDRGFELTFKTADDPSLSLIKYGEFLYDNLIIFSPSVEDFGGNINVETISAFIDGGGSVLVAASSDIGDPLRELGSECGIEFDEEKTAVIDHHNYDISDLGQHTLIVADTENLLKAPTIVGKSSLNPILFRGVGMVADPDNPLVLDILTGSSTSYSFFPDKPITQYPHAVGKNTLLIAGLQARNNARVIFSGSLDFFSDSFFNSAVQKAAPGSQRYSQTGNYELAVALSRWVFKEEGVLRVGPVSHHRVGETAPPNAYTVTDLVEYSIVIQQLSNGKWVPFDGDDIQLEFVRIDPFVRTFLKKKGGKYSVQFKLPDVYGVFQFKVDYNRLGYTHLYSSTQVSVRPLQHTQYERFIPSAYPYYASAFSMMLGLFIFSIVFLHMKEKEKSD
RPN1 (human), sequence (P04843 24-607 limits assumed): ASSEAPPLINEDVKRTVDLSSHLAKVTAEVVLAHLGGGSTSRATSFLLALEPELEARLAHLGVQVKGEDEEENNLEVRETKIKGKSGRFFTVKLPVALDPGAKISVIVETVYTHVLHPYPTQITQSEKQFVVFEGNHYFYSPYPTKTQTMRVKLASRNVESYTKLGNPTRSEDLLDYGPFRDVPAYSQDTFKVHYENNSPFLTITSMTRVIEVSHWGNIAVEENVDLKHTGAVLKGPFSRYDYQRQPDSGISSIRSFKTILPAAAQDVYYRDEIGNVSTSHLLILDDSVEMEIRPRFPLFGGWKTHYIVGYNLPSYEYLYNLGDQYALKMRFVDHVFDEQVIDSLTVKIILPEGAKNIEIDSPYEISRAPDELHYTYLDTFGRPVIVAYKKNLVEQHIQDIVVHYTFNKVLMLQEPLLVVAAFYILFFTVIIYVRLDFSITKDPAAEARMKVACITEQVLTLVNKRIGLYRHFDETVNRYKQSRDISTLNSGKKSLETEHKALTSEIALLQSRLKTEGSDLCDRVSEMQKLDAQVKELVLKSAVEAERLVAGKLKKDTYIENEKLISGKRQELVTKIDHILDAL
TFRC (human), sequence (P02786 whole entry): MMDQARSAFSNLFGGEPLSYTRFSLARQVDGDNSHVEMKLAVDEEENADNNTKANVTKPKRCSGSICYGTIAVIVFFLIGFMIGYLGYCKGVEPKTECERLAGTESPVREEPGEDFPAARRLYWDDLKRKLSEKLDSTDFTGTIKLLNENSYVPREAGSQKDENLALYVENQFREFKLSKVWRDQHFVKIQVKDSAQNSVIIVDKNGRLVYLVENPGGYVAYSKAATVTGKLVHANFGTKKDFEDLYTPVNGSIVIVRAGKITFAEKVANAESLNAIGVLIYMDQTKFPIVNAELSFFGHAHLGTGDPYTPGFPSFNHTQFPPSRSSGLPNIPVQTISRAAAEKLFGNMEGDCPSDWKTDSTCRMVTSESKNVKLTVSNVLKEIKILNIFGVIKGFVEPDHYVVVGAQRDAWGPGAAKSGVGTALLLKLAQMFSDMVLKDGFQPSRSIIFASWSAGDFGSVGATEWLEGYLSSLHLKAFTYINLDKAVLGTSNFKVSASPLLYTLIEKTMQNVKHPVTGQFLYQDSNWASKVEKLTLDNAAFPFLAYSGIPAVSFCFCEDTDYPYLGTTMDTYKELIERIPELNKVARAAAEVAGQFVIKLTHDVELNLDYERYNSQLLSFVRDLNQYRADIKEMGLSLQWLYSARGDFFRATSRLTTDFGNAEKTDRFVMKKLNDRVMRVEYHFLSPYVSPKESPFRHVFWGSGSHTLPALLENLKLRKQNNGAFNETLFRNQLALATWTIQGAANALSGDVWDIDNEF
COPA (human), sequence (P53621 whole entry): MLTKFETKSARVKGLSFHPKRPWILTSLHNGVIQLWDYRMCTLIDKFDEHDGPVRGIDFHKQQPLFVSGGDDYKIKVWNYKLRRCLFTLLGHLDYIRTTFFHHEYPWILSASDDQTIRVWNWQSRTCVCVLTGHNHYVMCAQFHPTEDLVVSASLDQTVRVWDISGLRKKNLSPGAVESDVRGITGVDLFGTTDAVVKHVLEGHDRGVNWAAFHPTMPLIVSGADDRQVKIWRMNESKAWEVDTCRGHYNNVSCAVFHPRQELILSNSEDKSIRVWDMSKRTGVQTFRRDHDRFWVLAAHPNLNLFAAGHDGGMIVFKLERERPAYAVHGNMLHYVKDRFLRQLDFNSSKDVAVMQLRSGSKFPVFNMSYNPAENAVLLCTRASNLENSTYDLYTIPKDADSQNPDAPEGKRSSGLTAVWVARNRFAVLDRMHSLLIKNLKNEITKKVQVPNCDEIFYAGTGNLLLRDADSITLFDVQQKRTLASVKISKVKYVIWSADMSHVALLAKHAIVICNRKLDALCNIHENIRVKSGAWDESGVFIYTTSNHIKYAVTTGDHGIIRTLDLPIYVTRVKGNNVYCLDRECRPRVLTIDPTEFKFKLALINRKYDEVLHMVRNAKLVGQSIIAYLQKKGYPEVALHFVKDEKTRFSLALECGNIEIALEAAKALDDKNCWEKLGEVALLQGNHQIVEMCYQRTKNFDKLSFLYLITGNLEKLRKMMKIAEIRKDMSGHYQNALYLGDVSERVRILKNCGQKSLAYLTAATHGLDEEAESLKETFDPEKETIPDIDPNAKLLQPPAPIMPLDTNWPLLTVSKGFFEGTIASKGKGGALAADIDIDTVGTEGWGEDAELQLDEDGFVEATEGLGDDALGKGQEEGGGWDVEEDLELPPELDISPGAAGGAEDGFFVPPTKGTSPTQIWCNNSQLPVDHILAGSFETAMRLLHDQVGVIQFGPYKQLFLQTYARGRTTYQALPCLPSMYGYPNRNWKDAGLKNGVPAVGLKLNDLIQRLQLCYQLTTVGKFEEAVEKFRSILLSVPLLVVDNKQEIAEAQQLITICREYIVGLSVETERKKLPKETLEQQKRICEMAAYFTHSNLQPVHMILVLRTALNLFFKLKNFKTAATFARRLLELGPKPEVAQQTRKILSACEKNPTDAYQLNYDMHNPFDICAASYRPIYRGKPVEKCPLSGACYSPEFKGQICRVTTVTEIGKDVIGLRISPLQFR
COPB1 (human), sequence (P53618 2-953 limits assumed): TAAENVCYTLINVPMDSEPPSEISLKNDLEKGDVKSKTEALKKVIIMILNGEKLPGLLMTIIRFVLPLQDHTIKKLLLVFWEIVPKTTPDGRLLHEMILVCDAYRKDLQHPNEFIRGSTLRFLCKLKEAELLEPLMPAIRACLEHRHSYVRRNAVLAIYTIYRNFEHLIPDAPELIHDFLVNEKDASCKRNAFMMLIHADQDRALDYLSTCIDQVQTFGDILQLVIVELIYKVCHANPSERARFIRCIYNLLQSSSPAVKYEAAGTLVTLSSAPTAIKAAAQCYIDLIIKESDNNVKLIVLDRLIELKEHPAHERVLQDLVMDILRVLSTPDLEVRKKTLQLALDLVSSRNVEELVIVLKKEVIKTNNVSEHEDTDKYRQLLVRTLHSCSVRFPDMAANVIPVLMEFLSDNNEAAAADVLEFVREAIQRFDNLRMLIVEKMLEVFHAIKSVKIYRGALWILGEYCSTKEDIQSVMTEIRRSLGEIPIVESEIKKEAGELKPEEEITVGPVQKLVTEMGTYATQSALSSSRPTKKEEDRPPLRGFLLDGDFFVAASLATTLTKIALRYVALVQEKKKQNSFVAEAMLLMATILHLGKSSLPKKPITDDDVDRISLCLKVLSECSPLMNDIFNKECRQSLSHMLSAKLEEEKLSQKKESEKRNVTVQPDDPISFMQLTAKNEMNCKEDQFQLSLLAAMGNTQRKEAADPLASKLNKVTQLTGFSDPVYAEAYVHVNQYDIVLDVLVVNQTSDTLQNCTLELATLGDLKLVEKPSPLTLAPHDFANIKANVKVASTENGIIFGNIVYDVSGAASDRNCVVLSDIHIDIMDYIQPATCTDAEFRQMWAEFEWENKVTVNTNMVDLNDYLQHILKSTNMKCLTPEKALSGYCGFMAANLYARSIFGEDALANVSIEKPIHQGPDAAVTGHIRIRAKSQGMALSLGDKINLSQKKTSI
SLC25A13 (human), sequence (Q9UJS0 2-675 limits assumed): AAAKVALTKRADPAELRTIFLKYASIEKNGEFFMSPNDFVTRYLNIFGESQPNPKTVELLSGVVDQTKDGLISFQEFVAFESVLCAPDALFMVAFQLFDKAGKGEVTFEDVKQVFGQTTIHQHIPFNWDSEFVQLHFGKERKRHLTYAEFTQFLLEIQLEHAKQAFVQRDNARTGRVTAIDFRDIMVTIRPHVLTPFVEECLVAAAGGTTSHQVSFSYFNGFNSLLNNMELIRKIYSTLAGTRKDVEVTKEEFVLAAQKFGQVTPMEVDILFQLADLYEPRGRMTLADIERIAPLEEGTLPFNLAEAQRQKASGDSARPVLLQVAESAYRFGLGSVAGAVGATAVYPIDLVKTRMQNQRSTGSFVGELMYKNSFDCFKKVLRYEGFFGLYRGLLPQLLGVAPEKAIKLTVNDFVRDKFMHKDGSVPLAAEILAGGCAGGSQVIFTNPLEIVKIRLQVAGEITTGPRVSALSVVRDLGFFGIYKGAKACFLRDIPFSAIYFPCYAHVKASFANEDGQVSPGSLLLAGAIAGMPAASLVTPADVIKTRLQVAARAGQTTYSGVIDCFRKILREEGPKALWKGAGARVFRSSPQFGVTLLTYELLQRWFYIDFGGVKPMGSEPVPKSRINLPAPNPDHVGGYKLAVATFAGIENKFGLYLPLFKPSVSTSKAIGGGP

In the case of Flag-MFF1 (from UniProt Q9GZY8 1-342), the mean fold amounted to 32.3 fold with DDB1 (human); 25.2 fold with OPA1 (human); 17.1 fold with DDOST (human); 10.8 fold with RPN1 (human); 12.1 fold with RPN2 (human); 21.4 fold in the assay with HSPA8 (human). Further, the mean fold was 25.3 fold with TFRC (human), 15.1 fold with SLC25A13 (human), 18.5 fold with COPB1 (human) and 19.3 fold with COPA (human).
